# Data as given in paper doi:10.1101/2023.07.10.548257 (bioRxiv, 2024).
# Residue numbers refer to the chain shown, from its start. No end group written: not given here.
# Columns and labels:
# [1] = biological target: T1, SHP2 C-SH2^WT domain (Homo sapiens, UniProt Q06124); assay: SH2 specificity profiling by bacterial peptide display (Human pTyr and pTyr-Var Libraries), C-SH2 WT; assay type: binding; conditions: for >3.2 --> C-WT-Ave: average enrichment score above cutoff of 3.2 (true binder); for C-WT-Ave (enrichment score): bacterial peptide display, frequency in enriched sample / input, average, Human pTyr Library N = 3, pTyr-Var Library N = 2
# T1 construct: SHP2 SH2 domains were cloned into a His6-SUMO-SH2-Avi construct; His6-SUMO (N, cleaved yes); made in house; host or cells: E. coli C43(DE3), co-expressed with BirA
# T1 sequence (Q06124 112-216 limits assumed): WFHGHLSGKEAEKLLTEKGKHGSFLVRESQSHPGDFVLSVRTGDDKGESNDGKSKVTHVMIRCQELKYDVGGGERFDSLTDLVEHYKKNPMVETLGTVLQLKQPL
# Method: (§1) Next, we characterized the sequence specificity of the SH2 mutants relative to their wild-type counterparts in a large-scale, unbiased screen. […] For each peptide in a library, an enrichment score is calculated from the deep sequencing data as the frequency of the peptide in the SH2-enriched sample divided by the frequency of the peptide in the unenriched input sample ([34]). For this study, we used two largely non-overlapping libraries, both encoding known human phosphosites. […] The Human pTyr Library consists of 1,916 sequences derived from known phosphorylation sites in the human proteome, along with another 617 control mutants ([35]). […]
# (§2) SH2 specificity profiling using bacterial peptide display
# (§3) Preparation of bacterial cells
# (§4) Electrocompetent MC1061 cells were transformed with ~100 ng of the respective library. After 1 hour recovery in 1 mL LB, cells were further diluted into 250 mL LB + 0.1% chloramphenicol. 1.8 mL of overnight culture was used to inoculate 100 mL LB + 0.1% chloramphenicol, and grown until OD600 reached 0.5. 20 mL of cell suspension was induced at 25 °C using a final concentration of 0.4% arabinose until the OD600 ~ 1 (after approximately 4 hours). The cells were spun down at 4000 rpm for 15 minutes, and the pellet was resuspended in PBS so that the OD600 ~1.5. The cells were stored in the fridge and used within a week.
# (§5) For each sample, 75 μL of Dynabeads™ FlowComp™ Flexi Kit were washed twice in 1 mL SH2 buffer (50 mM HEPES pH 7.5, 150 mM NaCl, 1 mM TCEP, and 0.2% BSA) on a magnetic rack.
# (§6) The beads were then resuspended in 75 μL of SH2 buffer. SH2 domains were thawed quickly and 20 μM of protein was added to the beads. SH2 buffer was added up to 150 μL, and the suspension was incubated for 1 hour at 4 °C while rotating. After 1 hour, the suspension was placed on a magnetic rack and washed twice with 1 mL SH2 buffer.
# (§7) Preparing the phosphorylated cells
# (§8) 150 μL of prepared cells per sample were spun down for 4000 rpm for 5 minutes at 4 °C.
# (§9) Kinase screen buffer was prepared (50 mM Tris, 10 mM magnesium chloride, 150 mM sodium chloride; add 2 mM sodium orthovanadate and 1 mM TCEP fresh) and the cells of each sample were resuspended in 100 μL kinase screen buffer. Kinases c-Src, c-Abl, AncSZ, Eph1B were added to a final concentration of 2.5 µM each, creatine phosphate was added to a final concentration of 5 mM, and phosphokinase was added to a final concentration of 50 µg/mL. The suspension was incubated at 37 °C for 5 minutes before ATP was added to a final concentration of 1 mM. This mixture was incubated at 37 °C for 3 hours. After 3 hours, EDTA was added to a final concentration of 25 mM to quench the reaction. The input library control sample was not phosphorylated. These cells were spun down at 4000 rpm for 15 minutes at 4 °C. The cells were then resuspended in 100 µL of SH2 buffer + 0.1% BSA. Phosphorylation of the cells was confirmed by labeling with the PY20-PerCP-eFluor 710 pan-phosphotyrosine antibody followed by analysis via flow cytometry.
# (§10) Enriching for cells displaying high-affinity phosphopeptide ligands
# (§11) 100 μL of phosphorylated cells were mixed with 75 µL SH2-beads for 1 hour at 4 °C while rotating. After 1 hour, samples were placed on a magnetic rack, supernatant was removed and 1 mL SH2 buffer was added to each sample. This was rotated for 30 minutes at 4 °C to wash the beads.
# (§12) After this wash, the beads were placed on a magnetic rack, the supernatant was removed and 50 µL […]
# (§13) Preparing sequencing samples & deep sequencing
# (§14) All SH2-selected samples and the input library control were resuspended in 50 µL MilliQ water, vortexed, and boiled for 10 minutes at 100 °C. The boiled lysate was used as the DNA template in a PCR reaction using the TruSeq-eCPX-Fwd and TruSeq-eCPX-Rev primers. The mixture resulting from this PCR was used directly into a second PCR to append Illumina sequencing adaptors and Supplementary Information - page 5 of 18 […]
# (§15) unique 5’ and 3’ indices to each sample (D700 and D500 series primers). The resulting PCR mixtures […]
# [2] = biological target: T2, SHP2 C-SH2^E139D domain (Homo sapiens, UniProt Q06124, E139D); assay: SH2 specificity profiling by bacterial peptide display (Human pTyr and pTyr-Var Libraries), C-SH2 E139D; assay type: binding; conditions: for >3.2 --> C-E139D-Ave: average enrichment score above cutoff of 3.2 (true binder); for C-E139D-Ave (enrichment score): bacterial peptide display, frequency in enriched sample / input, average, Human pTyr Library N = 3, pTyr-Var Library N = 2
# T2 construct: SHP2 SH2 domains were cloned into a His6-SUMO-SH2-Avi construct; His6-SUMO (N, cleaved yes); made in house; host or cells: E. coli C43(DE3), co-expressed with BirA
# T2 sequence (Q06124 112-216 E139D limits assumed): T1 sequence (Q06124 112-216 limits assumed) with E28D
# Method: as §1, §2, §3, §4, §5, §6, §7, §8, §9, §10, §11, §12, §13, §14, §15
# [3] = biological target: T3, SHP2 N-SH2^WT domain (Homo sapiens, UniProt Q06124); assay: SH2 specificity profiling by bacterial peptide display (Human pTyr and pTyr-Var Libraries), N-SH2 WT; assay type: binding; conditions: for >3.2 --> N-WT-Ave: average enrichment score above cutoff of 3.2 (true binder); for N-WT-Ave (enrichment score): bacterial peptide display, enzymatically phosphorylated displayed peptides, SH2-coated beads, deep sequencing, frequency in enriched sample / input, average, Human pTyr Library N = 3, pTyr-Var Library N = 2
# T3 construct: SHP2 SH2 domains were cloned into a His6-SUMO-SH2-Avi construct; His6-SUMO (N, cleaved yes); made in house; host or cells: E. coli C43(DE3), co-expressed with BirA
# T3 sequence (Q06124 6-102 limits assumed): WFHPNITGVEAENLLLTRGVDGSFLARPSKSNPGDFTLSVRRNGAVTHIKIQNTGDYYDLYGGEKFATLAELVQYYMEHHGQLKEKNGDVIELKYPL
# Method: as §1, §2, §3, §4, §5, §6, §7, §8, §9, §10, §11, §12, §13, §14, §15
# [4] = biological target: T4, full-length SHP2^WT (Homo sapiens, UniProt Q06124); assay: SHP2 activation assay using phosphopeptides (DiFMUP), SHP2 WT; assay type: biochemical; conditions: activation of full-length SHP2 WT (0.05 nM) by phosphopeptide; DiFMUP substrate; 60 mM HEPES pH 7.2, 75 mM KCl, 75 mM NaCl, 1 mM EDTA, 0.05% Tween-20, 0.5 mM TCEP; fluorescence read every 25 s for 6 min; mean of N (column N)
# T4 construct: Full-length SHP2 constructs were diluted in assay buffer; His6-TEV (N, cleaved yes); made in house; host or cells: E. coli BL21(DE3)
# T4 sequence (Q06124 1-593): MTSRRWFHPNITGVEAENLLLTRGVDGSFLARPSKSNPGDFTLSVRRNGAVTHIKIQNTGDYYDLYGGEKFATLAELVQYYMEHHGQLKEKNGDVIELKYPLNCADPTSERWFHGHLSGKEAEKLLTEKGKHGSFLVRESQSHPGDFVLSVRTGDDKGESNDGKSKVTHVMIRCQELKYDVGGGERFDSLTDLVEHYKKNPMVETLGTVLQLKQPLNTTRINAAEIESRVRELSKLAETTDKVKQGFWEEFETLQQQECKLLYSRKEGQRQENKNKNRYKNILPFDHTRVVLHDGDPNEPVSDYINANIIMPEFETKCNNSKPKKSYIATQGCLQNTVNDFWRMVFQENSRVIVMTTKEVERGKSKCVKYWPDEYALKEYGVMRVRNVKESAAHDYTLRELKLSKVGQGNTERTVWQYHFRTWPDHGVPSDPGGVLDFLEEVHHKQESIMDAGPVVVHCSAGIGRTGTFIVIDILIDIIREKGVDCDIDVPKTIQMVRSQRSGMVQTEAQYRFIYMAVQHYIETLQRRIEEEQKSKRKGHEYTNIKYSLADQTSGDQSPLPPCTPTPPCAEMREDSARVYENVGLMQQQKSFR
# Method: SHP2 activation assays using phosphopeptides
# Full-length SHP2 constructs were diluted in assay buffer (60 mM HEPES pH 7.2, 75 mM KCl, 75 mM NaCl,1 mM EDTA, 0.05% Tween-20, with 0.5 mM TCEP freshly added) to a 2X concentration of 0.1 nM. Peptides were serially diluted in assay buffer, with the last point of the concentration series fully without peptide. 15 μL of peptide and 15 μL of 800 μM DiFMUP was added to a black 96-well half area plate. Right before starting the plate reader assay, 30 μL SHP2 was added to each well a Supplementary Information - page 4 of 18 […]
# final concentration of 0.05nM. Kinetic measurements (Ex 358/Em […]) were taken on a BioTek Neo2 plate reader every 25 seconds for 6 minutes. […]
# OD600 reached 0.5. 20 mL of cell suspension was induced at 25 °C using a final concentration of 0.4% arabinose until the OD600 ~ 1 (after approximately 4 hours). The cells were spun down at 4000 rpm for 15 minutes, and the pellet was resuspended in PBS so that the OD600 ~1.5. The cells were stored in the fridge and used within a week.
# as §5, §6, §7, §8, §9, §10, §11, §12, §13
# All SH2-selected samples and the input library control were resuspended in 50 µL MilliQ water, vortexed, and boiled for 10 minutes at 100 °C. The boiled lysate was used as the DNA template in a PCR reaction using the TruSeq-eCPX-Fwd and TruSeq-eCPX-Rev primers. The mixture resulting from this PCR was used directly into a second PCR to append Illumina sequencing adaptors and Supplementary Information - page 5 of 18
# [5] = biological target: T5, full-length SHP2^T42A (Homo sapiens, UniProt Q06124, T42A); assay: SHP2 activation assay using phosphopeptides (DiFMUP), SHP2 T42A; assay type: biochemical; conditions: activation of full-length SHP2 T42A (0.05 nM) by phosphopeptide; DiFMUP substrate; HEPES pH 7.2 assay buffer; mean of N (column N)
# T5 construct: Full-length SHP2 constructs were diluted in assay buffer; His6-TEV (N, cleaved yes); made in house; host or cells: E. coli BL21(DE3)
# T5 sequence (Q06124 1-593 T42A): T4 sequence (Q06124 1-593) with T42A
# [6] = biological target: SHP2 N-SH2 domain, wild type (N-SH2-Avi-biotin) (UniProt Q06124); assay: peptide display screen (pTyr-Var Library); conditions: N = 2 independent library transformations and screens; parent: est. 1.0; read off a plot
Molecule,>3.2 --> C-WT-Ave [1],C-WT-Ave (enrichment score) [1],>3.2 --> C-E139D-Ave [2],C-E139D-Ave (enrichment score) [2],>3.2 --> N-WT-Ave [3],N-WT-Ave (enrichment score) [3],enrichment (fselected / finput) [6],EC50 [4],EC50 [5]
"SDRKGGSYTQAASSD (also: phosphorylated, site not given here) [1A01_HUMAN_344]",FALSE (>3.2 -->),0.7595,FALSE (>3.2 -->),0.8092,FALSE (>3.2 -->),0.7728,,,
CC[C@H](C)[C@H](NC(=O)[C@@H](NC(=O)[C@H](C)NC(=O)[C@H](Cc1ccc(OP(=O)(O)O)cc1)NC(=O)[C@@H](NC(=O)[C@@H]1CCCN1C(=O)[C@H](CCC(=O)O)NC(=O)[C@@H]1CCCN1C(=O)[C@H](CO)NC(=O)[C@H](C)NC(C)=O)[C@@H](C)CC)[C@@H](C)O)C(=O)N[C@@H](CC(=O)O)C(=O)N[C@@H](Cc1ccccc1)C(=O)N[C@@H](CC(=O)O)C(N)=O,,,,,,,,2.82 µM,1.46 µM
CC(=O)NCC(=O)N[C@@H](CC(=O)O)C(=O)N[C@@H](CCCCN)C(=O)N[C@@H](CCC(N)=O)C(=O)N[C@H](C(=O)N[C@@H](CCC(=O)O)C(=O)N[C@@H](Cc1ccc(OP(=O)(O)O)cc1)C(=O)N[C@@H](CC(C)C)C(=O)N[C@@H](CC(=O)O)C(=O)N[C@@H](CC(C)C)C(=O)N[C@@H](CC(=O)O)C(=O)N[C@@H](CC(C)C)C(=O)N[C@@H](CC(=O)O)C(N)=O)C(C)C,,,,,,,,26.2 µM,
"MKGDYHRYLAEFATG (also: phosphorylated, site not given here) [1433E_HUMAN_131]",FALSE (>3.2 -->),0.8786,FALSE (>3.2 -->),0.911,FALSE (>3.2 -->),0.8269,,,
MKGDAHRYLAEFATG (bacterially displayed) [1433E_HUMAN_131_YA],FALSE (>3.2 -->),0.6613,FALSE (>3.2 -->),0.7738,FALSE (>3.2 -->),0.7788,,,

# The next lines start with results.
>3.2 --> C-WT-Ave [1],C-WT-Ave (enrichment score) [1],>3.2 --> C-E139D-Ave [2],C-E139D-Ave (enrichment score) [2],>3.2 --> N-WT-Ave [3],N-WT-Ave (enrichment score) [3],enrichment (fselected / finput) [6],Molecule,EC50 [4],EC50 [5]
,,,,,,1.5,MERTK pTyr 872 peptide QADVI-pY-VNTQL I871T,,
FALSE (>3.2 -->),0.777,FALSE (>3.2 -->),0.8393,FALSE (>3.2 -->),0.8572,,"MKGDYYRYLAEVATG (also: phosphorylated, site not given here) [1433G_HUMAN_133]",,
FALSE (>3.2 -->),0.8982,,,FALSE (>3.2 -->),0.9356,,MKGDAARYLAEVATG (bacterially displayed) [1433G_HUMAN_133_YA],,
